Measured values as given in PMC10786891, “Massively parallel profiling of RNA-targeting CRISPR-Cas13d”.

T1: EsCas13d, nuclease-dead (Eubacterium siraeum, UniProt B0MS50, R295A;H300A;R849A;H854A)
T1 sequence: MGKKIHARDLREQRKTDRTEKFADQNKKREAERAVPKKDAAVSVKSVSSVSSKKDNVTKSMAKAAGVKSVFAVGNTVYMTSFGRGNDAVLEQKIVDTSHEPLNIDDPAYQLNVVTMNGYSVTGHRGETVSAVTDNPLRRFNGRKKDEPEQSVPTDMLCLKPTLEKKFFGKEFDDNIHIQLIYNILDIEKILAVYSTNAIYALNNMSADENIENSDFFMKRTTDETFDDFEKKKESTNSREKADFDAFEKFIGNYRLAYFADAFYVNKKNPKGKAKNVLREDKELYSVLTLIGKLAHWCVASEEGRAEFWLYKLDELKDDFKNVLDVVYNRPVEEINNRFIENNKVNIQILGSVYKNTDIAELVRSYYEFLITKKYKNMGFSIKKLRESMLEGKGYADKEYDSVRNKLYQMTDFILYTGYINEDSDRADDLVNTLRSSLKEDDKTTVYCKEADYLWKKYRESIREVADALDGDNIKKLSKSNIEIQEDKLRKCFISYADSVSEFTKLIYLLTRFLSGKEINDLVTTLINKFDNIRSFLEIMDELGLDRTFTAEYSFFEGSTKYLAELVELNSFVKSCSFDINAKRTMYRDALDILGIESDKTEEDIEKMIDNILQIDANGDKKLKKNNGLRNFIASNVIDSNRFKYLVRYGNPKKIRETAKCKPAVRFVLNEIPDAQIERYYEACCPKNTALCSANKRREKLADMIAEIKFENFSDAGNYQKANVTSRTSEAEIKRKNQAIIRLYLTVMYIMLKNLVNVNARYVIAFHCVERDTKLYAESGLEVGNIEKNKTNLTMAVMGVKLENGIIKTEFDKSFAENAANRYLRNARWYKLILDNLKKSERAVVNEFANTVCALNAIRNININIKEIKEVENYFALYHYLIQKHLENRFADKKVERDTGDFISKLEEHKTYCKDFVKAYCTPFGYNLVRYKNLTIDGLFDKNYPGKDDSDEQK

B1: target 1 insC 3' of 15,insC 3' of 13 (mixed)
RNA 1: CACCCGUGCAAAAAUGCAGGGGUCUAAAACUGAGCGGAUAACCUCUCUAUGG
RNA 2: GGGAAUGGAUCCACAUCUACGAAUUCGUACCAUAGAGCAGCGUUAUCCGCUCACCGAGAUCGGAAGAGCACACGU
B2: target 1 C2G,G12U (mixed)
RNA 1: CACCCGUGCAAAAAUGCAGGGGUCUAAAACUGAGCGGAUAACCUCUCUAUGG
RNA 2: GGGAAUGGAUCCACAUCUACGAAUUCGUACCAUAGAGAGUUUAUCCGCUGACCGAGAUCGGAAGAGCACACGU
B3: target 1 U19A,C22U (mixed)
RNA 1: CACCCGUGCAAAAAUGCAGGGGUCUAAAACUGAGCGGAUAACCUCUCUAUGG
RNA 2: GGGAAUGGAUCCACAUCUACGAAUUCGUAUCAAAGAGAGGUUAUCCGCUCACCGAGAUCGGAAGAGCACACGU
B4: target 1 C2G,C21U (mixed)
RNA 1: CACCCGUGCAAAAAUGCAGGGGUCUAAAACUGAGCGGAUAACCUCUCUAUGG
RNA 2: GGGAAUGGAUCCACAUCUACGAAUUCGUACUAUAGAGAGGUUAUCCGCUGACCGAGAUCGGAAGAGCACACGU
B5: target 1 insA 3' of 3,insA 3' of 2 (mixed)
RNA 1: CACCCGUGCAAAAAUGCAGGGGUCUAAAACUGAGCGGAUAACCUCUCUAUGG
RNA 2: GGGAAUGGAUCCACAUCUACGAAUUCGUACCAUAGAGAGGUUAUCCGCUACAACCGAGAUCGGAAGAGCACACGU
B6: target 1 insU 3' of 4,insG 3' of 1 (mixed)
RNA 1: CACCCGUGCAAAAAUGCAGGGGUCUAAAACUGAGCGGAUAACCUCUCUAUGG
RNA 2: GGGAAUGGAUCCACAUCUACGAAUUCGUACCAUAGAGAGGUUAUCCGCUUCAGCCGAGAUCGGAAGAGCACACGU
B7: target 1 insU 3' of 9,insA 3' of 5 (mixed)
RNA 1: CACCCGUGCAAAAAUGCAGGGGUCUAAAACUGAGCGGAUAACCUCUCUAUGG
RNA 2: GGGAAUGGAUCCACAUCUACGAAUUCGUACCAUAGAGAGGUUAUUCCGACUCACCGAGAUCGGAAGAGCACACGU
B8: target 1 insA 3' of 12,insC 3' of 1 (mixed)
RNA 1: CACCCGUGCAAAAAUGCAGGGGUCUAAAACUGAGCGGAUAACCUCUCUAUGG
RNA 2: GGGAAUGGAUCCACAUCUACGAAUUCGUACCAUAGAGAGGAUUAUCCGCUCACCCGAGAUCGGAAGAGCACACGU
B9: target 1 insU 3' of 13,insG 3' of 6 (mixed)
RNA 1: CACCCGUGCAAAAAUGCAGGGGUCUAAAACUGAGCGGAUAACCUCUCUAUGG
RNA 2: GGGAAUGGAUCCACAUCUACGAAUUCGUACCAUAGAGAGUGUUAUCCGGCUCACCGAGAUCGGAAGAGCACACGU
B10: target 1 insU 3' of 4,insA 3' of 2 (mixed)
RNA 1: CACCCGUGCAAAAAUGCAGGGGUCUAAAACUGAGCGGAUAACCUCUCUAUGG
RNA 2: GGGAAUGGAUCCACAUCUACGAAUUCGUACCAUAGAGAGGUUAUCCGCUUCAACCGAGAUCGGAAGAGCACACGU
B11: target 1 U11C,U19C (mixed)
RNA 1: CACCCGUGCAAAAAUGCAGGGGUCUAAAACUGAGCGGAUAACCUCUCUAUGG
RNA 2: GGGAAUGGAUCCACAUCUACGAAUUCGUACCACAGAGAGGCUAUCCGCUCACCGAGAUCGGAAGAGCACACGU
B12: target 1 insG 3' of 7,insU 3' of 7 (mixed)
RNA 1: CACCCGUGCAAAAAUGCAGGGGUCUAAAACUGAGCGGAUAACCUCUCUAUGG
RNA 2: GGGAAUGGAUCCACAUCUACGAAUUCGUACCAUAGAGAGGUUAUCGUCGCUCACCGAGAUCGGAAGAGCACACGU
B13: target 1 insG 3' of 10,insA 3' of 5 (mixed)
RNA 1: CACCCGUGCAAAAAUGCAGGGGUCUAAAACUGAGCGGAUAACCUCUCUAUGG
RNA 2: GGGAAUGGAUCCACAUCUACGAAUUCGUACCAUAGAGAGGUUGAUCCGACUCACCGAGAUCGGAAGAGCACACGU
B14: target 1 C2A,C22G (mixed)
RNA 1: CACCCGUGCAAAAAUGCAGGGGUCUAAAACUGAGCGGAUAACCUCUCUAUGG
RNA 2: GGGAAUGGAUCCACAUCUACGAAUUCGUAGCAUAGAGAGGUUAUCCGCUAACCGAGAUCGGAAGAGCACACGU
B15: target 1 A18C,C22U (mixed)
RNA 1: CACCCGUGCAAAAAUGCAGGGGUCUAAAACUGAGCGGAUAACCUCUCUAUGG
RNA 2: GGGAAUGGAUCCACAUCUACGAAUUCGUAUCAUCGAGAGGUUAUCCGCUCACCGAGAUCGGAAGAGCACACGU
B16: target 1 G5C,A20U (mixed)
RNA 1: CACCCGUGCAAAAAUGCAGGGGUCUAAAACUGAGCGGAUAACCUCUCUAUGG
RNA 2: GGGAAUGGAUCCACAUCUACGAAUUCGUACCUUAGAGAGGUUAUCCCCUCACCGAGAUCGGAAGAGCACACGU
B17: target 1 insA 3' of 13,insC 3' of 13 (mixed)
RNA 1: CACCCGUGCAAAAAUGCAGGGGUCUAAAACUGAGCGGAUAACCUCUCUAUGG
RNA 2: GGGAAUGGAUCCACAUCUACGAAUUCGUACCAUAGAGAGACGUUAUCCGCUCACCGAGAUCGGAAGAGCACACGU
B18: target 1 insU 3' of 15,insU 3' of 4 (mixed)
RNA 1: CACCCGUGCAAAAAUGCAGGGGUCUAAAACUGAGCGGAUAACCUCUCUAUGG
RNA 2: GGGAAUGGAUCCACAUCUACGAAUUCGUACCAUAGAGUAGGUUAUCCGCUUCACCGAGAUCGGAAGAGCACACGU
B19: target 1 U3G,G13A (mixed)
RNA 1: CACCCGUGCAAAAAUGCAGGGGUCUAAAACUGAGCGGAUAACCUCUCUAUGG
RNA 2: GGGAAUGGAUCCACAUCUACGAAUUCGUACCAUAGAGAAGUUAUCCGCGCACCGAGAUCGGAAGAGCACACGU
B20: target 1 insU 3' of 18,insU 3' of 14 (mixed)
RNA 1: CACCCGUGCAAAAAUGCAGGGGUCUAAAACUGAGCGGAUAACCUCUCUAUGG
RNA 2: GGGAAUGGAUCCACAUCUACGAAUUCGUACCAUAUGAGAUGGUUAUCCGCUCACCGAGAUCGGAAGAGCACACGU
B21: target 1 insU 3' of 6,insG 3' of 2 (mixed)
RNA 1: CACCCGUGCAAAAAUGCAGGGGUCUAAAACUGAGCGGAUAACCUCUCUAUGG
RNA 2: GGGAAUGGAUCCACAUCUACGAAUUCGUACCAUAGAGAGGUUAUCCUGCUCGACCGAGAUCGGAAGAGCACACGU
B22: target 1 insA 3' of 12,insA 3' of 2 (mixed)
RNA 1: CACCCGUGCAAAAAUGCAGGGGUCUAAAACUGAGCGGAUAACCUCUCUAUGG
RNA 2: GGGAAUGGAUCCACAUCUACGAAUUCGUACCAUAGAGAGGAUUAUCCGCUCAACCGAGAUCGGAAGAGCACACGU
B23: target 1 insU 3' of 13,insA 3' of 4 (mixed)
RNA 1: CACCCGUGCAAAAAUGCAGGGGUCUAAAACUGAGCGGAUAACCUCUCUAUGG
RNA 2: GGGAAUGGAUCCACAUCUACGAAUUCGUACCAUAGAGAGUGUUAUCCGCAUCACCGAGAUCGGAAGAGCACACGU
B24: target 1 insG 3' of 22,insA 3' of 10 (mixed)
RNA 1: CACCCGUGCAAAAAUGCAGGGGUCUAAAACUGAGCGGAUAACCUCUCUAUGG
RNA 2: GGGAAUGGAUCCACAUCUACGAAUUCGUACGCAUAGAGAGGUUAAUCCGCUCACCGAGAUCGGAAGAGCACACGU
B25: target 1 C6A,A14G (mixed)
RNA 1: CACCCGUGCAAAAAUGCAGGGGUCUAAAACUGAGCGGAUAACCUCUCUAUGG
RNA 2: GGGAAUGGAUCCACAUCUACGAAUUCGUACCAUAGAGGGGUUAUCAGCUCACCGAGAUCGGAAGAGCACACGU
B26: target 1 insC 3' of 18,insG 3' of 8 (mixed)
RNA 1: CACCCGUGCAAAAAUGCAGGGGUCUAAAACUGAGCGGAUAACCUCUCUAUGG
RNA 2: GGGAAUGGAUCCACAUCUACGAAUUCGUACCAUACGAGAGGUUAUGCCGCUCACCGAGAUCGGAAGAGCACACGU
B27: target 1 insU 3' of 12,insG 3' of 11 (mixed)
RNA 1: CACCCGUGCAAAAAUGCAGGGGUCUAAAACUGAGCGGAUAACCUCUCUAUGG
RNA 2: GGGAAUGGAUCCACAUCUACGAAUUCGUACCAUAGAGAGGUUGUAUCCGCUCACCGAGAUCGGAAGAGCACACGU
B28: target 1 insA 3' of 12,insG 3' of 1 (mixed)
RNA 1: CACCCGUGCAAAAAUGCAGGGGUCUAAAACUGAGCGGAUAACCUCUCUAUGG
RNA 2: GGGAAUGGAUCCACAUCUACGAAUUCGUACCAUAGAGAGGAUUAUCCGCUCAGCCGAGAUCGGAAGAGCACACGU

target: T1, EsCas13d, nuclease-dead; test: crRNA (strand 1, pre-loaded); Mg2+; 40 mM Tris-HCl pH 7.5, 150 mM NaCl, 6 mM MgCl2, 1 mM DTT, 0.1% Tween-20, 0.2 mg/ml BSA; 25 C; 10 min per concentration, then washed; details: tags: His6-TwinStrep-SUMO cleaved; N-terminal SNAP kept (SNAP-Surface 488); label: 3' end held by stalled T7 RNA polymerase

Going from B1 to B2, the Kd falls from 34 ± 4 nM to 7.14 ± 0.3 nM (4.8-fold). The second binds more tightly here.

Compared with B3, B4 is 6-fold lower in Kd: 70 ± 19 nM for the first, 11.7 ± 1.6 nM for the second. The second binds more tightly here.

B5 and B6 are within error of each other in Kd: 7.1 ± 0.4 nM for the first, 6.8 ± 0.4 nM for the second.

Compared with B7, B8 is 4.2-fold higher in Kd: 6.6 ± 0.8 nM for the first, 27.4 ± 2.6 nM for the second.

Compared with B9, B10 is 3.2-fold lower in Kd: 25 ± 5 nM for the first, 7.7 ± 0.6 nM for the second.

Going from B11 to B12, the Kd falls from ~80 nM to 9.26 ± 0.34 nM (8.6-fold). The second binds more tightly here.

Going from B13 to B14, the Kd rises from 30.5 ± 3.4 nM to ~80 nM (2.6-fold). The first binds more tightly here.

B15 and B16 are within error of each other in Kd: 59 ± 7 nM for the first, 63 ± 12 nM for the second.

Compared with B17, B18 is 2.4-fold lower in Kd: 23 ± 5 nM for the first, 9.6 ± 0.6 nM for the second.

Going from B19 to B20, the Kd rises from 5.4 ± 0.8 nM to 73 ± 12 nM (14-fold). The first binds more tightly here.

Going from B21 to B22, the Kd rises from 15.3 ± 1 nM to 34.2 ± 3.1 nM (2.2-fold). The first binds more tightly here.

Going from B23 to B24, the Kd rises from 13.5 ± 1.5 nM to 25 ± 1.5 nM (1.9-fold).

First: B25
Second: B26
The Kd of the first is 4.2-fold lower: 12.6 ± 0.9 nM for the first, 53.4 ± 3.3 nM for the second. The first binds more tightly here.

Compared with B27, B28 is 2.7-fold higher in Kd: 10.8 ± 0.7 nM for the first, 28.9 ± 3.1 nM for the second. The first binds more tightly here.
